Results: US20180134781A1 (Regeneron, published 2018)
Blank lines part the entries; values can stand above or below the binder they belong to.

Columns and labels:
[1] = biological target: T1, human ANGPTL8 expressed with C-terminal mouse IgG2a Fc tag (human); assay: BLI (Octet HTX), hANGPTL8-mFc captured on AMC sensor
T1 construct: also called hANGPTL8-mFc; hANGPTL8.mFc
T1 chain: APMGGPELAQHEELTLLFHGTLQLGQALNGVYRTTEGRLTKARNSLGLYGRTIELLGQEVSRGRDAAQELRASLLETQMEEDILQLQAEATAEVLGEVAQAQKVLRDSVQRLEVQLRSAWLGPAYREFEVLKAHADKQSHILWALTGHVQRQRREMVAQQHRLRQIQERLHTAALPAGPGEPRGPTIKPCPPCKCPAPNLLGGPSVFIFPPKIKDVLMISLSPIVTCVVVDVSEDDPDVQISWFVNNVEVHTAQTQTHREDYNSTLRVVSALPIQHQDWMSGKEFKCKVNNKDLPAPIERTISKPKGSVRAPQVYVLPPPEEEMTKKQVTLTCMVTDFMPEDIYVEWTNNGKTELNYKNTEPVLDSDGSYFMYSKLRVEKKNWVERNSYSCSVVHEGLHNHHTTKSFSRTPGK
Procedure: (§1) Binding of ANGPTL8 antibodies to human and monkey ANGPTL8 proteins was investigated using Bio-layer Interferometry with an Octet HTX biosensor platform (ForteBio, A Division of Pall Life Sciences). All experiments were performed at 25° C. in 10 mM HEPES pH 7.4, 150 mM NaCl, 0.05% v/v Surfactant Tween-20, and 1 mg/ml BSA with the reaction multiwell plate agitated at 1000 rpm. Approximately 1.6 nm of human ANGPTL8 produced with a C-terminal mouse IgG2a Fc tag (hANGPTL8-mFc; SEQ ID NO: 340) or cynomolgus monkey ANGPTL8 produced with a C-terminal mouse IgG2a Fc tag (MfANGPTL8-mFc; SEQ ID NO: 341) was captured onto anti-mFc (AMC) Octet biosensors by submerging the sensors into wells containing 10 μg/mL of each protein for 4 minutes. Under the same conditions a negative control protein with the same mFc tag (hLDLR-mFc) was also coupled to the AMC sensor. All four sensors, […] and one blank, were then submerged into wells containing 100 nM of different ANGPTL8 monoclonal antibodies or an isotype control for 4 minutes.

[2] = biological target: T2, hLDLR-mFc (negative control protein with the same mFc tag) (human, UniProt P01130 22-788); assay: BLI (Octet HTX), hLDLR-mFc captured on AMC sensor
T2 construct: also called Irrelevant control; not shown: mFc tag ('the same mFc tag', mouse IgG2a Fc)
Procedure: as §1

[3] = biological target: T3, monkey ANGPTL8 expressed with C-terminal mouse IgG2a Fc tag (cynomolgus monkey); assay: BLI (Octet HTX), MfANGPTL8-mFc captured on AMC sensor
T3 construct: also called MfANGPTL8-mFc; mfANGPTL8-mFc
T3 chain: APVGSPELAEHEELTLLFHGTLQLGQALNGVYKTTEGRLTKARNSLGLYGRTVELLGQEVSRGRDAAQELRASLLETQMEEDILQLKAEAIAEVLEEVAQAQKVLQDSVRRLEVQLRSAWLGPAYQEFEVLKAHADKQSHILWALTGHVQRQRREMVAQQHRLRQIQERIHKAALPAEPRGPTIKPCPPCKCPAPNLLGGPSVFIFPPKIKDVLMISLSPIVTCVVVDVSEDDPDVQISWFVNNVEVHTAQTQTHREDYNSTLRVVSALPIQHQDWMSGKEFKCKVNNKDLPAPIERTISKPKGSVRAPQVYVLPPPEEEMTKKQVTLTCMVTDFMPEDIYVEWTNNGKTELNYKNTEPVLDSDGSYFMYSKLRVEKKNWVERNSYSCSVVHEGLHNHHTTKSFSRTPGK
Procedure: as §1

mouse ANGPTL8 = biological target: T4, mouse ANGPTL8 (mouse, UniProt Q8R1L8 16-198, limits assumed); assay: SPR
T4 sequence (looked up): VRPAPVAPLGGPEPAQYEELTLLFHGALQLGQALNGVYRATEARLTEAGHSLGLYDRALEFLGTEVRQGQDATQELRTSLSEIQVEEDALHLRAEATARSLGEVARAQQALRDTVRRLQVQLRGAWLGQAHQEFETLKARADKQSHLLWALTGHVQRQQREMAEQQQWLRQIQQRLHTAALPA

mouse ANGPTL3 = biological target: T5, mouse ANGPTL3 (mouse, UniProt Q9R182 17-455, limits assumed); assay: SPR
T5 sequence (looked up): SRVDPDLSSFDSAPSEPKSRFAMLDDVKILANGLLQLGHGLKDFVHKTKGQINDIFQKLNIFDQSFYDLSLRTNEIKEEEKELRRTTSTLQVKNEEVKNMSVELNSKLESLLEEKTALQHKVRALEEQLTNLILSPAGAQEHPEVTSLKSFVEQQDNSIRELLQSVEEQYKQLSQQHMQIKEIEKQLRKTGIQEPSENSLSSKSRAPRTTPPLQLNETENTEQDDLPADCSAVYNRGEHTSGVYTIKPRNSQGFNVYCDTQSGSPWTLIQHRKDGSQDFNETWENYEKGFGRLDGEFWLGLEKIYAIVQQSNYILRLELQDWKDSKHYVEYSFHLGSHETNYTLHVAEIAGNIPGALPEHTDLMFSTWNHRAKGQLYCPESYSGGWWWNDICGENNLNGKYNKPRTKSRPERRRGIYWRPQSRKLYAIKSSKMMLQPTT

human ANGPTL3 = biological target: T6, human ANGPTL3 (human, UniProt Q9Y5C1 17-460, limits assumed); assay: SPR
T6 construct: also called hANGPTL3
T6 sequence: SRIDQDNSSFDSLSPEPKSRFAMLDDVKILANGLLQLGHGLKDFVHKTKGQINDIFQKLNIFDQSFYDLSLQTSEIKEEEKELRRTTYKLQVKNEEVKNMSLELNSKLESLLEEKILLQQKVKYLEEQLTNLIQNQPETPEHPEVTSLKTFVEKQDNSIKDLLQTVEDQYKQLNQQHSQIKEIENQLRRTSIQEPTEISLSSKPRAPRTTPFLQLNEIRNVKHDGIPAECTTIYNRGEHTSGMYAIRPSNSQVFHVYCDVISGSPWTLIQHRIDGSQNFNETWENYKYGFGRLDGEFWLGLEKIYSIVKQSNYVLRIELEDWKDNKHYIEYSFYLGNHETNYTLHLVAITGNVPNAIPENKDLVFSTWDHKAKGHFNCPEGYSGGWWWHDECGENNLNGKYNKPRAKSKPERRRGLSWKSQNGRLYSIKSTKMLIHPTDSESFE

human ANGPTL4 = biological target: T7, human ANGPTL4 (human, UniProt Q9BY76 26-406, limits assumed); assay: SPR
T7 construct: also called hANGPTL4
T7 sequence: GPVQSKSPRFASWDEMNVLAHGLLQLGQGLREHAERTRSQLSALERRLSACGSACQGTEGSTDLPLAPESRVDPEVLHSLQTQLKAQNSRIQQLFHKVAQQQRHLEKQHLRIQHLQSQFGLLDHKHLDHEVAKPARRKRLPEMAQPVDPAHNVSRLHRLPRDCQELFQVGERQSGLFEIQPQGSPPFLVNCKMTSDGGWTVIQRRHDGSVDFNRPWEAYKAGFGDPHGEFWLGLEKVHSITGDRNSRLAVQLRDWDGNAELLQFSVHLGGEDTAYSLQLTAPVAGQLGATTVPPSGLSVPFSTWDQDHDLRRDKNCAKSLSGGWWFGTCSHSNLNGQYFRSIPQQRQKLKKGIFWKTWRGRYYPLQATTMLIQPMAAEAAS

mouse ANGPTL4 = biological target: T8, mouse ANGPTL4 (mouse, UniProt Q9Z1P8 24-410, limits assumed); assay: SPR
T8 sequence (looked up): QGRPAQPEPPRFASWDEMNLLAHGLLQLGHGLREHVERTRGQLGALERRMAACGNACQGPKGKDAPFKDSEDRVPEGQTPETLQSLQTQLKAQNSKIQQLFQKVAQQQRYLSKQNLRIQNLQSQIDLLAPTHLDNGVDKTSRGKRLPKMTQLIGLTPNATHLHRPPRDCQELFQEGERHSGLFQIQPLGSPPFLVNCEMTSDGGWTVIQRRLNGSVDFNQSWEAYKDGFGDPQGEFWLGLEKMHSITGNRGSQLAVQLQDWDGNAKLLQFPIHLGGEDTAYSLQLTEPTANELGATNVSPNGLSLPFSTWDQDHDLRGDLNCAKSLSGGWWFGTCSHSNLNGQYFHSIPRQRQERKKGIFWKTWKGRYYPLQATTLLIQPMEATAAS

T2 sequence (P01130 22-788): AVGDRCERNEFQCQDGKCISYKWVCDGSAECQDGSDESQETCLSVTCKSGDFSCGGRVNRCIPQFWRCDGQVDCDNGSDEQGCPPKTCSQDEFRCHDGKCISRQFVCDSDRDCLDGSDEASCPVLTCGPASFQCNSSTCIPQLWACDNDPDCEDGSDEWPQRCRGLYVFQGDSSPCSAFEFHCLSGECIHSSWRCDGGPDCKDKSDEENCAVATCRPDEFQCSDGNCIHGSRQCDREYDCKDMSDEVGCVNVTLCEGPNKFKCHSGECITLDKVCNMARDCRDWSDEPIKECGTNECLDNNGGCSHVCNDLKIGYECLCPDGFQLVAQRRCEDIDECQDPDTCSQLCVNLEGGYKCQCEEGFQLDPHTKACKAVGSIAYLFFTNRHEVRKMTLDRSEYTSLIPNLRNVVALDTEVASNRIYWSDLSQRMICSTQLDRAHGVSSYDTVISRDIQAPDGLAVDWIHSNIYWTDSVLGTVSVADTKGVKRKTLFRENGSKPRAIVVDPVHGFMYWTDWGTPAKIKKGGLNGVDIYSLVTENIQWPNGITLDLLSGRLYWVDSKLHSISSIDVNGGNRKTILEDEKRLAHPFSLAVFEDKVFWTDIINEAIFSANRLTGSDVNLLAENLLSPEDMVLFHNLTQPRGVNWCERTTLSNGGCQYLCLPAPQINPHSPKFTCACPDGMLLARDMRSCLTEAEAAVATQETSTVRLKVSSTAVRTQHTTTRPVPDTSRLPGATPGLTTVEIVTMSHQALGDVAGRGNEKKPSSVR

B1: H4H15316P (antibody, human IgG4, V domains shown)
VH: EVQLVESGGGLVQPGRSLRLSCAASGFIFDDYDMHWVRQAPGKGLEWVSGISWNSGSKGYADSVKGRFTISRDNAKNSLYLQMNSLRAEDTALYYCTKGPWDYFDYWGQGTLVTVSS
VL: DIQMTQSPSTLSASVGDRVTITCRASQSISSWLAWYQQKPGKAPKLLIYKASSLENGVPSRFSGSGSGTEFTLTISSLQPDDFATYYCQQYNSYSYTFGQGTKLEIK
notes: human IgG4 Fc (H4H prefix)
binding result [1]: no binding (tested: background 0.03 nm at 100 nM mAb)
binding result [2]: no binding (tested: 0.03 nm at 100 nM mAb)
binding result [3]: no binding (tested: background 0.03 nm at 100 nM mAb)

binding result (mouse ANGPTL8): no binding
binding result (mouse ANGPTL3): no binding
binding result (human ANGPTL3): no binding
binding result (human ANGPTL4): no binding
binding result (mouse ANGPTL4): no binding
B2: H4H15341P (antibody, human IgG4, V domains shown)
VH: EVQLVESGGGLVQPGGSLRLSCAASGFTFNNHEMNWVRQAPGKGLEWVSYISSSGNTVTYADFLKGRFTISRDNAKNSLFLQMNSLRDEDTAVYYCARDHLSGTSPLSYWGQGTLVTVSS
VL: DIQMTQSPSSLSASVGDRVTITCQASQDINNYLNWFQQKPGKAPKLLIFDASNLETGVPSRFSGSGSGTDFTFTISSLQPEDIATYFCQQYENLPYTFGQGTKLEIK
notes: also called anti-hANGPTL8
binding result [2]: no binding (tested: 0.03 nm at 100 nM mAb)
